From US20240327506A1, “METHODS AND COMPOSITION FOR THE SELECTIVE ENHANCEMENT OF ADOPTIVE CELL THERAPY” (MaineHealth, priority 2023, published 2024) come the findings set out here.

One test addresses T1, β3 integrin (Homo sapiens, UniProt P05106+P06756).
T1 construct: we next stimulated human Jurkat T-cells or primary CD8+ T-cells with a synthetic version of the soluble RGDKGE; endogenous in cells; host or cells: Jurkat T-cells
The experiment in a line: Western blot of β3 integrin phosphorylation in Jurkat T-cells after peptide stimulation. It counts as cell-based. As to conditions: compared to control peptide CP. The protocol: FIGS. 2A-2F. Detection of RGDKGE (SEQ ID NO: 1)-containing collagen peptide in malignant tumor cells and expression of key signaling molecules in T-cells. Briefly, whole cell lysates and serum free concentrated conditioned medium was prepared from tumor cells lines. FIG. 2A. Western blot analysis of whole cell lysates from human C8161 and murine B16F10 melanoma cells for the expression of the low molecular weight 16 kDa RGDKGE (SEQ ID NO: 1)-containing collagen peptide (XL313) or actin as a loading control. FIG. 2B. […]
Whole cell and CAM tissue lysates were collected in RIPA buffer (10 mM Tris-HCl, pH 8.0; 1 mM EDTA; 0.5 mM EGTA; 1% Triton X-100; 0.1% Sodium Deoxycholate; 0.1% SDS; 140 mM NaCl) supplemented with 1× protease inhibitor and 1× phosphatase inhibitor and were run on polyacrylamide gels using denaturing conditions. […] Western blot bands were quantified using Image J software based on pixel intensity.
We previously made the surprising observation that a small bioactive collagen peptide containing the core amino acid sequence RGDKGE (SEQ ID NO: 1) could be generated inside a subset of M2-like activated macrophages as well as a variety of other malignant tumor cells, and then actively secreted outside the cells (11-13). Importantly, minimal levels of this soluble collagen peptide was detected in normal cells (13). […]
Background: Immunoblotting shows a protein as a band on a membrane.

The subject of test [1] is primary murine CD8+ T-cells. As to the kind of experiment: CD8+ T-cell polarization on denatured collagen type-IV (F-actin staining). It counts as cell-based. As to conditions: denatured collagen type-IV coated slides, 1 hour, compared to CP. An excerpt:
FIGS. 3A-3C. The RGDKGE (SEQ ID NO: 1)-containing collagen peptide P2 inhibits CD8+ T-cell polarization on denatured collagen type-IV. Briefly, microscopy slides were coated with denatured collagen type-IV to mimic the altered subendothelial basement membranes of tumor associated blood vessels. Murine primary CD8+ T-cells were isolated from mice bearing B16F10 melanomas and stimulated with either non-specific control peptide CP or the RGDKGE (SEQ ID NO: 1)-containing collagen peptide P2 and seeded on the coated slides. T-cells were allowed to incubate for 1 hour. Next slides were washed, fixed and stained with Rhodamine-labeled Phalloidin to mark F-actin. Cells were analyzed for morphological evidence of cell shape changes and polarized F-actin. FIG. 3A. Example of an enlarged image of CD8+ T-cell morphology following stimulation with either non-specific control peptide CP or the RGDKGE (SEQ ID NO: 1)-containing collagen peptide P2. FIG. 3B. Example of CD8+ T-cell morphology following stimulation with either non-specific control peptide CP or the RGDKGE (SEQ ID NO: 1)-containing collagen peptide P2. […] FIG. 3C. Quantification of the mean percentage of polarized CD8+ T-cells per 400× microscopic field. Data bars indicate mean percentage of polarized cells per 400× microscopic field from two independent experiments with 10 to 11 fields per treatment. *P<0.05. […]

T1 sequence (P05106 27-788): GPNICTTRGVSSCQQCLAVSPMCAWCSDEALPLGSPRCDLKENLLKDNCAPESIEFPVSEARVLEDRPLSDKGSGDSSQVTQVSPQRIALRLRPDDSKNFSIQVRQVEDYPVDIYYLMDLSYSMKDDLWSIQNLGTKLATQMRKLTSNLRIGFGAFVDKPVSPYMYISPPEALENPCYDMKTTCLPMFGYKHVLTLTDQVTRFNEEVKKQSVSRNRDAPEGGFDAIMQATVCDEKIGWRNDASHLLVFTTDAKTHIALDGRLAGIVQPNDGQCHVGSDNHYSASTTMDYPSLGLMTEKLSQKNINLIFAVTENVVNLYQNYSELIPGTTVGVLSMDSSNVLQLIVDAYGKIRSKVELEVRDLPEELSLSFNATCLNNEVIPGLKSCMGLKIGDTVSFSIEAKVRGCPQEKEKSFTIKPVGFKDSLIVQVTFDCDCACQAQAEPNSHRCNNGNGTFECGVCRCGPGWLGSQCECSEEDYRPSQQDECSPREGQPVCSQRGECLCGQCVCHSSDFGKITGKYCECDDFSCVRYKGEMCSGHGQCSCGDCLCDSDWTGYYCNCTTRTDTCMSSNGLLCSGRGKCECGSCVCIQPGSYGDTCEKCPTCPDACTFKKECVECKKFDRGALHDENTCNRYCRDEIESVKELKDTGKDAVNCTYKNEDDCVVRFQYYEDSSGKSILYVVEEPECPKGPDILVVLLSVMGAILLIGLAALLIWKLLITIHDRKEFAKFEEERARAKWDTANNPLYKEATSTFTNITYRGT
T1 sequence (P06756 31-889 limits assumed): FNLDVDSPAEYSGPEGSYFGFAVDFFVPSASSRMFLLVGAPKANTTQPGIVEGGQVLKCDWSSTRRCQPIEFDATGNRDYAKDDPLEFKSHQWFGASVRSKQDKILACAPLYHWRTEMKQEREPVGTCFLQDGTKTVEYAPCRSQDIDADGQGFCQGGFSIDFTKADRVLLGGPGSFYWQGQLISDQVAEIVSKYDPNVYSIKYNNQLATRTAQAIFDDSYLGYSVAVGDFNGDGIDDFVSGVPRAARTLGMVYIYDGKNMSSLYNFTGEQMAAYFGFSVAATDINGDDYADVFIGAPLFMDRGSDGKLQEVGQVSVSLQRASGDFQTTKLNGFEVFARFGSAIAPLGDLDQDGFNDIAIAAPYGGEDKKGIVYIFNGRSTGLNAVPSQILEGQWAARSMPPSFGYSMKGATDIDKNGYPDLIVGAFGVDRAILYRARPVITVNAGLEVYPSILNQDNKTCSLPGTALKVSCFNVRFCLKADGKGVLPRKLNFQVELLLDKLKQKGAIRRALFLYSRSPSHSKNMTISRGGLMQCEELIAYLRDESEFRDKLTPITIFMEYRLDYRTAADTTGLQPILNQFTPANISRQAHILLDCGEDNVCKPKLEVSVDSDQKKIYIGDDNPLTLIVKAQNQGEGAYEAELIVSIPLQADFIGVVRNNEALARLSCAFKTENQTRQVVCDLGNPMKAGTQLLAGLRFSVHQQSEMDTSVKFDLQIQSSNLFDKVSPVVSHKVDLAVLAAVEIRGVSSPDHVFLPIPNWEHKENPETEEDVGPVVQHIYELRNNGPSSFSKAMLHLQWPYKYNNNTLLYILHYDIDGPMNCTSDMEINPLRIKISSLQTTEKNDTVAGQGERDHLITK
T1 sequence (P06756 891-1048 partner limits assumed): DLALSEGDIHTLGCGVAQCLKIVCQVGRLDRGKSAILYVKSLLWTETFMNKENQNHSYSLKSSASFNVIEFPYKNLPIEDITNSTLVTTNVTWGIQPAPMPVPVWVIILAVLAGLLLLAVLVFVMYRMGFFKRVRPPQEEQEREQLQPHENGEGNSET

With “QGPRGDKGE (CQGPRGDKGEC; Synthetic: Synthetic collagen RGD containing peptide P-2) [Peptide P2, synthetic version of the soluble RGDKGE-containing collagen peptide]”, the β3 integrin phosphorylation entry in the test with β3 integrin is “enhanced β3 integrin phosphorylation”. Besides, in test [1], the “percentage of T-cells exhibiting a migratory and polarized morphological phenotype” value is “significant decrease”.
